Laboratory results reported in publication PMC3534942 (Virology, 2012).

Legend:
[1] = target: HSV-1 gB730 (HSV-1 glycoprotein B ectodomain) (HSV-1) (UniProt P06437); assay: SEC-MALS
[2] = target: the molecule itself; assay: mildly denaturing SDS-PAGE
SEC-MALS = target: the molecule itself; assay: SEC-MALS

HSV-1 gB730 (HSV-1 glycoprotein B ectodomain) (from UniProt P06437 31-730) (domain or fragment)
stoichiometry N [1]: 3

B1: HCMV gB706-CHis6 (HCMV strain AD169 glycoprotein B ectodomain, residues 25-706, C-terminal His6 tag) (domain or fragment)
chain: DPSSSTSHATSSTHNGSHTSRTTSAQTRSVYSQHVTSSEAVSHRANETIYNTTLKYGDVVGVNTTKYPYRVCSMAQGTDLIRFERNIICTSMKPINEDLDEGIMVVYKRNIVAHTFKVRVYQKVLTFRRSYAYIYTTYLLGSNTEYVAPPMWEIHHINKFAQCYSSYSRVIGGTVFVAYHRDSYENKTMQLIPDDYSNTHSTRYVTVKDQWHSRGSTWLYRETCNLNCMLTITTARSKYPYHFFATSTGDVVYISPFYNGTNRNASYFGENADKFFIFPNYTIVSDFGRPNAAPETHRLVAFLERADSVISWDIQDEKNVTCQLTFWEASERTIRSEAEDSYHFSSAKMTATFLSKKQEVNMSDSALDCVRDEAINKLQQIFNTSYNQTYEKYGNVSVFETSGGLVVFWQGIKQKSLVELERLANRSSLNITHRTRRSTSDNNTTHLSSMESVHNLVYAQLQFTYDTLRGYINRALAQIAEAWCVDQRRTLEVFKELSKINPSAILSAIYNKPIAARFMGDVLGLASCVTINQTSVKVLRDMNVKESPGRCYSRPVVIFNFANSSYVQYGQLGEDNEILLGNHRTEECQLPSLKIFIAGNSAYEYVDYLFKRMIDLSSISTVDSMIALDIDPLENTDFRVLELYSQKELRSSNVFDLEEIMREFNSYKQRVKYVEDKVVDPLPP
binding result [2]: binds

B2: HCMV gB706-4M (HCMV strain AD169 glycoprotein B ectodomain, residues 25-706, Y155G/I156H/Y157R/W240A) (domain or fragment)
chain: DPSSSTSHATSSTHNGSHTSRTTSAQTRSVYSQHVTSSEAVSHRANETIYNTTLKYGDVVGVNTTKYPYRVCSMAQGTDLIRFERNIICTSMKPINEDLDEGIMVVYKRNIVAHTFKVRVYQKVLTFRRSYAGHRTTYLLGSNTEYVAPPMWEIHHINKFAQCYSSYSRVIGGTVFVAYHRDSYENKTMQLIPDDYSNTHSTRYVTVKDQWHSRGSTALYRETCNLNCMLTITTARSKYPYHFFATSTGDVVYISPFYNGTNRNASYFGENADKFFIFPNYTIVSDFGRPNAAPETHRLVAFLERADSVISWDIQDEKNVTCQLTFWEASERTIRSEAEDSYHFSSAKMTATFLSKKQEVNMSDSALDCVRDEAINKLQQIFNTSYNQTYEKYGNVSVFETSGGLVVFWQGIKQKSLVELERLANRSSLNITHRTRRSTSDNNTTHLSSMESVHNLVYAQLQFTYDTLRGYINRALAQIAEAWCVDQRRTLEVFKELSKINPSAILSAIYNKPIAARFMGDVLGLASCVTINQTSVKVLRDMNVKESPGRCYSRPVVIFNFANSSYVQYGQLGEDNEILLGNHRTEECQLPSLKIFIAGNSAYEYVDYLFKRMIDLSSISTVDSMIALDIDPLENTDFRVLELYSQKELRSSNVFDLEEIMREFNSYKQRVKYVEDKVVDPLPP
modifications: N-linked glycosylation (mass difference of 22.9 kDa suggested that all 18 predicted N-linked glycosylation sites were glycosylated)
stoichiometry N (SEC-MALS): 3
